Data published in patent US20240294594A1.
pKd: −log10 of the molar value.

Key:
FcγRIIIa V158 (human) [1] = molecular target: FcγRIIIa V158 (human) (UniProt P08637); experiment: SPR (Biacore 8K), ratio of 1/Kd values
FcγRIIIa F158 (human) [2] = molecular target: FcγRIIIa F158 (human) (UniProt P08637); experiment: SPR (Biacore 8K), ratio of 1/Kd values
FcγRIIb = FcγRIIb (UniProt P31994); experiment: SPR (Biacore 8K), receptor captured via anti-His antibody
FcγRIIIa V158 (human) [3] = molecular target: FcγRIIIa V158 (human) (UniProt P08637); experiment: as above
FcγRIIIa F158 (human) [4] = molecular target: FcγRIIIa F158 (human) (UniProt P08637); experiment: as above

Chain of FcγRIIIa F158 (human) (P08637 17-208 limits assumed): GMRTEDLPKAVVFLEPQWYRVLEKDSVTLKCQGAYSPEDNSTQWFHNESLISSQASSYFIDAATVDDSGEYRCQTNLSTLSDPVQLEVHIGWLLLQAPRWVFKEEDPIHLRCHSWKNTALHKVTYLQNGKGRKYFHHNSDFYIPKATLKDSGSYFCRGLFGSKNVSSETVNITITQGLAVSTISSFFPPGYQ
Chain of FcγRIIIa V158 (human) (P08637 17-208 F176V limits assumed): as the sequence (P08637 17-208 limits assumed) above, with F160V counted along it
Chain of FcγRIIb (P31994 46-217 limits assumed): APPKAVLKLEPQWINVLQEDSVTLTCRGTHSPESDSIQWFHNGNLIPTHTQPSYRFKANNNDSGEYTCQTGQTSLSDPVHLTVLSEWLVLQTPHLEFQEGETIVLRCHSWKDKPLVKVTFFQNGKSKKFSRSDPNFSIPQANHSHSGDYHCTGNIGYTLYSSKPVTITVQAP

- A/I (V158), affinity towards FcγRIIIa over affinity towards FcγRIIb (FcγRIIIa V158 (human) [1]): 161
- A/I (F158), affinity towards FcγRIIIa over affinity towards FcγRIIb (FcγRIIIa F158 (human) [2]): 32.9
- pKd (FcγRIIb): 4.86
- pKd (FcγRIIIa V158 (human) [3]): 7.06
- pKd (FcγRIIIa F158 (human) [4]): 6.37
Substance: Zolbetuximab (antibody)
